This series is described as follows: yeast display, Sf9 membrane polyspecificity reagent, FACS + sequencing; frameworks hold sequencing errors. A digest of the protocol: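 A synthetic nanobody library was expressed on Saccharomyces cerevisiae BJ5465 by galactose induction for 36–48 hours. The library was stained for 1 hour at 4 °C with 10% biotinylated, detergent-solubilized Sf9 membrane reagent and enriched with streptavidin microbeads before FACS. Low and high (top ~1%) gates were set on anti-HA fluorescence for expression and streptavidin fluorescence for reagent binding, and each polyreactivity label reflects the gate of origin.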
Take “QVQLVESGGGLVQAGGSLRLSCAASGSIFGRYAMGWYRQAPGKERELVAAISSSGGRTYYADSVNGRFTISRDNAKNTVYLQMNSLKPEDTAVYYCNAGTPYRGDYWGQGTQVTVSS”: the “polyreactivity (PSR sort gate)” value is reported as “high polyreactivity”. Take “QVQLVESGGGLVQAGGSLRLSCAASGRTLVSYAMGWYRQAPGKERELVATISWSGGSTYYADSVKGRFTISRDNAKNTVYLQMYSLKPEDTAVYYCNRSLTGYDELGYPVPYTYDYWGQATQVTVSS”: the “polyreactivity (PSR sort gate)” value is recorded as “low polyreactivity”.

On to “QVQFEESGGGLVQAGGSLRLSCAASGSTFQGYAMGWSRQAPGKERELVAAISSGGSTNYADSVKGRFTISRDNAKNTVYLQMNSLKPEDTAVYYCNVDLTTVGHWYYYRPGYDYWGQGTQVTVSS”, for which the “polyreactivity (PSR sort gate)” value was “low polyreactivity”.

Take “QVQLVESGGGLVQAGGSLRLSCAASGSIFTWYVMGWYRQAPGKERELVAAITSGGRTYYADSVKGRFTISRDNAKKTVYLQMNSLKPEDTAVYYCAADSIGRLWGYGYWGQGTQVTVSS”: the “polyreactivity (PSR sort gate)” value is on record as “high polyreactivity”.

As for “QVQLVDSGGGLVQAGGSLRLSCAASGRIIWYKGMGWYTQATGKERELVAAINRGTSTYYADSVKGRFTISRDNAKNSVYLQMNSLKPEDTAVYYCAAGVSRWYYYWGQGTQVTVSS”, the “polyreactivity (PSR sort gate)” value is reported as “high polyreactivity”. Under “QVQLVESGGGVVQAGGSLRLSCAASGSIFLGNAMGWYRPAPGKERELVAAITWSGGSTYYADSVKGRFTISRDNAKNTVYLQMNSLKPEDTAVYYCNAYSYVAIRDGGDYWGQGTLVTVSS” stands “low polyreactivity”. As to “QVQLVESGVGLVQAGGILSLSCAASGLTFGAYTMGWYRQAPGKERELVAAITSSGGRTYYADSVKGRFTISRDNAKITFYLQMNSLKPEDTAVFYCNARIFRSPNPYDYWGQGTQVSVSS”, the “polyreactivity (PSR sort gate)” value is “high polyreactivity”. Turning to “LVQLQESGGGLVQAGGSLRLSCAASGSIYKVVDMGLYRQAPAKEREFVATIGEGGNTYYADSVKGRFTISRDNAKNTVYLQMNSLKPEDTAVYYCNDDIGVYAYESDYWGQGTQVTVSS”, the “polyreactivity (PSR sort gate)” value was “low polyreactivity”. Under “QVQLVDSGGGLVQAGGSLRLSCAASGSTFISYAMRWYRPAPGKERELVAAISSSTGRTYYADSVKGRFTISRDNAKNTVYLQMNSLKPEDTAVYYCNAVHRYERVYWGQGTQVTVSS” stands “high polyreactivity”; under “QVQLVESGGGLVQAGGSLRLSCAASGRIFRYYAMGWYRQAPGKEREFVAAINSSGVNTYYADSVKGRFTISRDNAKNTVYLQMNSLKPEDTAVYYCAFLGMDYWGQGTQVTVSS”, “high polyreactivity”; under “QVQLVESGGGLVQAGRSLRLSCAASGITFIYYAMGWYRQAPGKESELVAAISKSGGRTYYADSVKGRFTISRDNAKNTVYLQMNSLKPEDTAVYYCNKLVGDDTDLYDYWGQGTQVTVSS”, “high polyreactivity”. The value for “QVQLVESGGGLVQAGGSLRLSCAASGSIFDRYAMGWYRKAPGKERELVASITYSGGSTYYADSVKGRFTISRDNAKNTVYLQMKSLKPEDTAVYYCAKVIRLVGDYDYWGQGTQVTVSS” was “low polyreactivity”. Under “QVQLVESGGGLVQAGGSLRLSCAASGFTFSYYGMGWNIQAPRKERELVPALTRSGTNTYYADSVKGRFTISRDNAKNTVYLQMKSLKPEDTAVFYCNADVAWSGYHDWYWSSEDYWGQGTQVTVSS” stands “low polyreactivity”; under “QVQLVESGGGLVQAGGSLRLSCAASGFTFARNAMGWNRQAPGKERELVASITQRGGSTNYADSVKGRFTISRDNAKNTVYFQLNSLKPEDTAVYYCNKASQLYYIQGTYSYGYWGQGSQVTVSS”, “low polyreactivity”; under “QVQLEESGGGLVQAGGSLRLSCAASGSIFGAYALGWYRQAPGKERELVAAISSSVDRTYYADSVKGRFTISRDNAKNTVYLQMNSLKPEDTAVYYCAARWGTRDRTKYYYWGQGTQVTVSS”, “high polyreactivity”. Regarding “QVQLVESGGGLVQAGGSLRLSCAASGFTFVSYAMGWYRQAPGKERELVATITSDGSTNYADSVKGRFTISRDNAKNTVYLQMNSLKPEDTAVYYCAADIHYYPGYLAYDYWGQGTQVTVSS”, the “polyreactivity (PSR sort gate)” value is “low polyreactivity”. Under “QVQLVESGGGLVQAGGSLRLSCAASGSIFSTYVMGWYRPAPGKERELVAAIRWRATSTFYADSVKGRFTISRDNAKNTVYLQMNSLKPEDTAVYYCNRYHRTSWRAKYDYWGQGTQVTVSS” stands “high polyreactivity”; under “QVQLVESGGGLVQAGGSLRLSCAASGITLSIYAMGWYRQAPGKERELVAAIDWSDGSTYYADSVKGRFTISRDNAKNTVYLQMNSLKPEDTAVYYCAAEYHWSYWWPTDDYWGQGTQVTVSS”, “high polyreactivity”; under “QVQLVESGGGLVQAGGSLRLSCAASGRTFYDYAMGWYRQAPGKERELVAAITYRDGTTYYADSVKGRFTISRDNAKNTVYLQMNSLKPEDTAVYDCGKTYYYSLGHGYNYWGQGTQVTVSS”, “low polyreactivity”.

“QVQLVESGGGLVQAGGSLRLSCAASGSTFTVYAMGWYRQAPGKERELVAAITVSTDSTYYADSVKGRFTISRDNAKNTVYLQMNSLKPEDTAVYYCAADSARSGYGRYDSWGQGTQVTVSS”: the “polyreactivity (PSR sort gate)” value is recorded as “low polyreactivity”. Under “QVQLVDSGGGLVQAGGSLPLSCAASGSIFDDYAMGWNRKAPGKERELVAAISGGVSTNYADSVKGRFTISRDNAKKTDYLQINSLKPEDTAVYYCNADYARAYIHEYWGQGTQVTVSS” stands “low polyreactivity”; under “QVQLVESGGGLVQAGGSLRLSCSASGSIYSYYTMGSYIQAPGKERELVAAITGSGGRTYYADSVKGRFTISRDNAKNTVYLQMNSLKQEDTAVYYCNADRHYVPYYSRPRYIPYDYWGQGTQVTVSS”, “high polyreactivity”.

With “QVQLEESGGGLVQAGGILRFSCAASGYTFRGYAMGWYRQAPGKEREFVAAIRNSGDSSYYADSVKGRFTISRDNAKNTVYLQRHSLKPEDTAVYYSAAYSRSSKYDYWGQGSQVTVSS”, the “polyreactivity (PSR sort gate)” value was “low polyreactivity”. The value for “QVQLVESGGGLVQAGGSLRLSCAASGSTFVTYGMGWYRQAPGKERELVAAITRDSSTNDADSVKGRFTISRDNAKNTVYLQLNSLKPEDTAVYYCATPRLPNFIGTEYDYWGQGTQVTVSS” was “low polyreactivity”; that for “QVQLVESGGGLVQAGGSLRLSCAASGFTFEYYAMGWYRPAPGKERELVADITTSSAGTYYADSVKGRFTISRDNAKNTVYLQMNSLKPEDTAVYYCNRDDLNTGEDLDYWGQGTQVTVSS” was “low polyreactivity”. Under “QVQLVESGGGLVQAGGSLRLSCAASGRIFGYYAMGWYRQAPGKERELVADITESGTSTYYADSVKGRFTISRDNAKNTVYLHMNILKPEDTAVYYCAAGYWWRYALYGYWGQGTQVTVSS” stands “low polyreactivity”. Turning to “QDQLVESGGGLVQAGGSLRLSCAASGRTIFRNAMGWYRQAPGKERELVAAITWSGGSTYYADSVKGRFTISRDNAKNTVYLQMNSLKPEDTAVYYCNRKRYGSDYEYWGQGTQVTVSS”, the “polyreactivity (PSR sort gate)” value was “low polyreactivity”. On to “QVQLVESGGGLVQAGGSLRLSCAASGFIFSSNAMGWYRQAPGKERELVATISFSGESTYYADSVKGRFTISRDNAKNTVYLQMNSLKPEDTAVYYCARRTYYRWYKYGYYDYNYWRQGTQVTVSS”, for which the “polyreactivity (PSR sort gate)” value is reported as “low polyreactivity”. Under “QVQLRESGCGLVQAGGNLRLSCAARGNIFDADIMGWYRQAPGKERELVASITDGGSTNYADSVRCRFTISRDNAKNTVYLQMNSLKPEDTAVYYCTAIAYPDIPTYFDHDSDYFYWGQGTQVTVSS” stands “high polyreactivity”; under “QVQLGESGGGLVQAGGSLRLSCAASGRILAKYAMGWSRQAPWKEREFVAAISYSGGSTYYADSVKGRFTISRDNAKNTVYLQMNSLKPEDTAVYYCAARYTFDRWKFGYWGQGTQVTVSS”, “high polyreactivity”.

The values above are taken from the nanobody polyreactivity screen of Harvey et al. (2022).
